Assay results as given in IntAct's records for PubMed 29691401.

Biological target: lmbl3_human L3MBTL3 (UniProt Q96JM7)
Sequence (Q96JM7 whole entry): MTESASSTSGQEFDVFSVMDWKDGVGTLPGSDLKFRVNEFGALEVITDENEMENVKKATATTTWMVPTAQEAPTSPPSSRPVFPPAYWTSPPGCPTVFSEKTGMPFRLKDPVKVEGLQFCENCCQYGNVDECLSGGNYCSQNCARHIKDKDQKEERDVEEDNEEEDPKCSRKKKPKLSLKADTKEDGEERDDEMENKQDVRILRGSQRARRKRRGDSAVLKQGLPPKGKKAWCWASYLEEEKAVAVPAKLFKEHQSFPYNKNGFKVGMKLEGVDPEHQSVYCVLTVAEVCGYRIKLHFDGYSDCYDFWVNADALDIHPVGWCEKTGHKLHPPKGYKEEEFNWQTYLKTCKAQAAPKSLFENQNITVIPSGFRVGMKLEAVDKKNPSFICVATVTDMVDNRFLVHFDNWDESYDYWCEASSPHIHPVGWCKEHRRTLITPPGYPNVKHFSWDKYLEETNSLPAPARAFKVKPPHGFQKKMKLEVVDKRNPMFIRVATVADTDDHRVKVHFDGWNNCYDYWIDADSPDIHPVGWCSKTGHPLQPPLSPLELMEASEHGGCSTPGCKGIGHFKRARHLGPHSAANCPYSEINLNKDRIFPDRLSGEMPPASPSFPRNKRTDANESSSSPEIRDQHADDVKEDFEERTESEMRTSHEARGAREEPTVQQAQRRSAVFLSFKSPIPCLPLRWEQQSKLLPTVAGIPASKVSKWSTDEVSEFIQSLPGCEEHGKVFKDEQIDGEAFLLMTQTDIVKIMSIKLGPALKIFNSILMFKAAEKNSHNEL

Transcription factor E2F1 (Homo sapiens), Q01094 K185R, sequence (Q01094 whole entry K185R): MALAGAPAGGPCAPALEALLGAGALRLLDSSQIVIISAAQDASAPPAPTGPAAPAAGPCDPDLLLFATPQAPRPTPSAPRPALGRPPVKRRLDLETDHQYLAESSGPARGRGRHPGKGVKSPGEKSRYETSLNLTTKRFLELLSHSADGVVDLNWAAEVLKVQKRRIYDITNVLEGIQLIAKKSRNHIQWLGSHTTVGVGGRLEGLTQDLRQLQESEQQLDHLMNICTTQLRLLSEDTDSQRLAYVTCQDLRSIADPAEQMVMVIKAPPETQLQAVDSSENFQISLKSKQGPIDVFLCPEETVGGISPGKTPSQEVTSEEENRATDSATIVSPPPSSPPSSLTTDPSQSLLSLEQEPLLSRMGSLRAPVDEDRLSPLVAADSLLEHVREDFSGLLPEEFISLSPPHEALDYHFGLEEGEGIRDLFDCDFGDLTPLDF

## Transcription factor E2F1 (Homo sapiens), Q01094 K185R
  effect of a mutation on the interaction: disrupting interaction strength
